Assay [1] deals with MOG-reactive B-cell receptor on B cells of anti-MOG transgenic mice. The assay can be described thus: cell-based or functional assay.
Assay [2] has the same target. As to the kind of experiment: flow cytometry on splenocytes, goat-anti-human IgG FITC.

On to MOG-Fc fusion protein, for which the ex vivo B cell depletion, splenocytes of anti-MOG transgenic mice, 10 µg/ml, 16 h in assay [1] worked out at 70%. Moreover, the percent of IgM-positive splenocytes that bound (% of IgM-positive splenocytes) in assay [2] is greater than 90.

The values above are taken from patent US20060062780A1.
